# Assay results: patent US20120040900A1 (BRIGHAM AND WOMEN S HOSPITAL, published 2012)
# B1: EE1234L (peptide)
# coil peptide: LEIEAAFLEQENTALETEVAELEQEVQRLENIVSQYETRYGPLGGGK
# notes: also called EE1234L (pI=3.7); acidic coil peptide
# B2: RR1234L (peptide)
# coil peptide: KGGGLEIRAAFLRRRNTALRTRVAELRQRVQRLRNIVSQYETRYGPL
# notes: also called RR1234L (pI=12.4); basic coil peptide
# Key:
# [1] = homodimer, circular dichroism thermal denaturation; unit inferred
# [2] = target: the molecule itself; experiment: homodimer, circular dichroism thermal denaturation; unit not given
# RR1234L = target: B2; experiment: heterodimer, circular dichroism thermal denaturation; unit inferred
Protein,Tm [1] [°C],ΔG [2],ΔH [2],Tm (RR1234L) [°C]
B1,28,-6.2,-45,> 90
B2,44,-9.4,-66,
